# Test results taken from the DeepSol protein solubility set.
# Assay: soluble on expression in E. coli; label from the status in PepcDB or PDB records
row,Sequence,soluble on expression in E. coli
1,MAHHHHHHMHPPSSGQGLFPRYGGGWMHQFGHVYALQQELLDPNANNWFRAVELWHTARQEGVAMNVSHFTSILRQCVQPGAWAQSLQVLKQMKRENVRPDVVGVGCALAACVEGKHYDEVENIFATFHKTMLLDSVCHLALIRARQESGNAKGAIAAGKQQQADQVPFLPYTYTHLLEACNAEDDAAYAMELVRNMHSEQWVPSQCAMLAIEDLGRRHERLAAFSRPLLSASDKADSALPSFDASRRLLPPEW,not soluble
2,MELLLYSLDNEGPIRFIQITDTHLVEAADGHLLGLETQNSLEHVLSSVQSENDQFDFFVVSGDISQDGSLSSYQRLHESLAPFNVPSFWFPGNHDEMSNMKVVCQDTEHLVNIIRTPHWQLVLLNSQVEGAVFGNLGDDQFELLERALTERPDLHTLISLHHHPIPMESNWMDKIGVKNGDKLMAMARKYPKVKCILWGHVHQDSDRMVDGIRMLSTPSTCVQFMPKSKDFNIDMIAPGYRRLQLNPDGSIETEMSRVEGIEFEVDLSVKGY,soluble
3,MGSDKIHHHHHHMPLLIDIRKLTLITRLIQDGAEQVADSLATLAGVDAAVEIKSLSFVQPEDIATEMGGGTIYSARVRLTEPPYGVFLMTFETETAAEIAELMTGSSVEDGFTQLHESALQEMCNILTSGFIDGIANTLNATINMGTPTVVQDDATEIADKALSHVRRDSLTIVLDSLVDIKESDVAFSLRIFLIPDPGSFVHLIDQLDYDTDRETHISADTDAVKELDMSGDADALDAFDSSK,not soluble
4,MSLSGFNYEKNQPHQMRAVSAVLGVFDGATPKYRTADENPELLFAAKQYANNILKVQSQNGIDGRFPDRSDDQNILDISMETGTGKTYTYTQTMFELHRWLGVFKFIVVVPTLSIKAGTQQFLQSKALAEHFEQDFGGDYEGVRLKTYVVESAKKNKGKKSNAPITIEQFVKAENKKEIHVLLINAGMVNSSSMNDTGDKALKDLFDNPVDALAAVRPFMIVDEPHKFPTRDSAKTWGNIKRLKPQYILRYGATFNDEYYNLLYRLTAVDAFNDGLVKGVRVFQEEMQGGMDAAVKLVSSDGKEAKFELNEKDKKQTFKLAKGEDLAQIHPAISDLKIDKMNKTVVVLSNGLELKTGAVINPYSYSQTVQDAMMQRAVAEHFKLERALLAERAPQPKIKPLTLFFIDDIAGYRSGNELSGSLKDKFESWIRAEAARRLKTESDPFYRDYLQKTLDDVSACHGGYFSKDNTDSDDRIEQEINEILHDKEKLLSLDNPRRFIFSKWTLREGWDNPNVFQICKLRSSGSTTSKLQEVGRGLRLPVNELMARVRDVPYKLNYFVDSSEKDFVKQLVGEINDNSFQEEISKKFTEELKQKILQKYPDIKPLVLVNQLFLDGIIDDNENFAEDGYDKLKAAYPEAFPKGLDKGKVSNAKDEGKDTIIMREGKYEELKALWELIHHKAVLQYKIKDEAEFADLFTAYLHENAAKFPQAGIRTAVNEAYINNGLMLSRRIDSFEDEDFIRFNTMTYREFLEKLAQTAKIRMQTLHQAFYCIRNELNIGDFLNMQTIAQIKNGFNRFLLHHSFHKFELDYRLVGSKIHPTKFTNKDGKPRAVKKADLGRFEDTEHRPAAGYLFGEIFYDSDIEHENVANNQIEGVIVFTKIPRNSIKIPVAGGGTYSPDFAYIVKTKSGEILNFVIEAKGTDGAEDLRKSEERKIKHAEKLFAEISKEIKVVFKTQFDGERIAELIGQNMPAGGHSENGREGHHHHHH,not soluble
5,MGSDKIHHHHHHMNTNQLIEAFRKFLPAEAILHEAEDLRPYECDALSAYRQLPMIVVLPRTEAEIAAILQTCQAERIPVVARGSGTGLSGGALPHAEGVLLSLARLNHILEIDPAAGTARVQPGVRNLAISEAAAYYGMYYAPDPSSQIACSIGGNVAENSGGVHCLKYGLTVHNILRLRVLTIEGDLLEIGADALDSPGFDLLALMTGSEGMLGIVTEITVRLLPKPETVKLVMAVFDDVRKAGEAVASVIQAGIIPAGMEMMDKITIHAVEDFVHAGYDLEGAAILLCESDGMAEEVADEIERIRTILQASGATRISLAQDEAERQRFWAGRKAAFPAAGRVSPDYYCMDGTIPRKHLAHVLEQIEQLSAEYGLRCMNVFHAGDGNLHPLILYDANQPGELQKAEAFGARILEICIEAGGSLTGEHGVGIEKLNQMCLQFNDAERNRFHAIKAAFDPQSLLNPGKAIPELHRCAEFGAMHIHRGAEKFPEIPRF,not soluble
6,IDGDSITNKQIKKFWRQKQIIEEDHLYSAIKAAARVRARNLSDEDYKRFEESLDMEDLETEDHQGLKDWWTKSKYAYLNQPALGSADSLKRKRFSTYTPNCFSFKPCNPLYATSLNVF,not soluble
7,MPSPSPKGLPVKQYAVQSQLPVYEWPDVGSGEYDVGVVASFGRLLNEALILKFPYGILNVHPSCLPRWRGPAPVIHTVLHGDTVTGVTIMQIRPKRFDVGPILKQETVPVPPKSTAKELEAVLSRLGANMLISVLKNLPESLSNGRQQPMEGATYAPKISAGTSCIKWEEQTSEQIFRLYRAIGNIIPLQTLWMANTIKLLDLVEVNSSVLADPKLTGQALIPGSVIYHKQSQILLVYCKDGWIGVRSVMLKKSLTATDFYNGYLHPWYQKNSQAQPSQCRFQTLRLPTKKKQKKTVAMQQCIE,soluble
8,MAVSEIKATMKLKPLKAPVFHKRDKDLRGSFSDHLKHKESKLSPAQLEAFRNAYNFFTKDRTGCIDSHGLISTIAKLGMNLNTYDIYNELKCADLDRDGKINFSDFINVLTDKKLFLKAVVPEKKICLDLANNPGILLFEILSKFVETSSLHRKDIIELVSYFRKRFQESHSEIMWSSYGRRGLKSEICSPPRSSTAAFANSARISIMKERDLYKFLEALKRCNLRTDSPYSKIPVFPLFPDVDGTVMGKPFKDTQKIEMLRRKEPLTFFEDYFFNKRDWKTQAMNVKPLKSASGYSDDILAIDHLFKKKQHWTVTDAAAIKQHVKKATESYNLGIALDHRKEMLNLWKKIRGDLVGIESNNESFYNTFSTYTWSWNVCQELLSAKDLRLHDASMNKSSPSNSGLSSPSDFSESDPETGRKRKRKSSRGFRQ,not soluble
9,MWLIILWNAKPDTPLFNFKDEVIKYKTYEPFESSIKRVNTTIKNGSKGKTLTEMINGYRADNDIRDEICNFNILKNKIRDMKNQQGNTMESYF,not soluble
10,MSILVKNNIHWVGQRDWEVRDFHGTEYKTLRGSSYNSYLIREEKNVLIDTVDHKFSREFVQNLRSEIDLADIDYIIINHAEEDHAGALTELMAQIPDTPIYCTANAIDSINGHHHHPEWNFKVVKTGDTLDIGNGKQLIFVETPMLHWPDSMMTYMTGDAVLFSNDAFGQHYCDERLFNDEVDQTELFEQCQRYYANILTPFSRLVTPKITEILGFNLPVDMIATSHGVVWRDNPTQIVELYLKWATDYQEDRITIFYDTMSNNTRMMADAIAQGINEVDPNVAVKIFNVARSDKNEILTNVFRSKGVLVGTSTMNNVMMPKIAGLVEEMTGLRFRNKRASAFGSHGWSGGAVDRLSTRLQDAGFEMSLSLKAKWRPDLDALELCRQHGRDIARQWALAPLPETTQQIAPVEETITCTAADLGPKMQCSVCQWIYDPALGEPLQDVAPGTPWNDVPDNFLCPECSLGKDVFDVLATEAK,not soluble
11,MDLVKVDDDVVREMEIRRQQHSKKYDRKFEELVKSMSEAHVEPEKMKIPFSRKPTEQETNNLREEWEKEYAALCTSGRTLARPNPNSSIFSKILAQGSPSSAKAGTTRSTPRTSKPPSADENIIFGQKLPETPAPKLLCPPRASPGSSRRLSIFVENLPENHAEIVRGTIFAGREAKIMQNDPENVPSTSTYGEPIRPYLLFARYISLEKGLLDDKNRYKSATDPRFREFLKENIKYKVKQSIKHRTSSEACAQILNYFKTLLQKQEVQVLGGYAPVLQLKTNKDIEYASLCIVHNYVILAERDESLIPLISSHITRLSVFYGYIEQVFCIILLSRSALLRQHPEECMVKFLATSMNPSSPDAIKKWSRQKAHIILFCSVFTKNAYCFSKGFKLKLTDEILWKYVDASTAHILEIPRGSFILWQLITTCKPRLQVDKERWIQLLLNIKFKIIPELDLDSFDGDEAMLMQLKQTIDELLHP,not soluble
12,MGSDKIHHHHHHMPIDEWLVLNRIGIFENPSLRRYVSPFPPPELMGITSGLQSETGFAAHGADIYAALALASTIPITEYRHILDFGCGCGRLARMLKGHPHKISGCDIDLRHVKWIGQSLDFMNVKLSSVRPPIPFADDEMDAVISVSIFTHLTENSQDDFLAELFRVTRPGGTLFLTVHGAQALKRACHEQPIRHMLDMDEGRFRKAQQAFNQNKHGFVLQFGHLTTKPEKAFYTPRAIFRRIRDSFSRKTINMPFEYGIAFHPESYIREHWSKWFDILDYRHGAIHQFQDIVVLSPKK,not soluble
13,MAKSRTIYVCAECGGTSLKWQGKCPHCSAWNTLEETVESAASSAGGHRYAPLAAASPVRSLSEIEARETPRQPTGLDEFDRVLGGGLVAGAVVLIGGDPGIGKSTLLLQALASLSATTKVLYVTGEESAEQVALRARRLGLQTGNVDLLAEIRLEAIQAAVSEQKPTVAVIDSIQTLYSGELTAAPGSVSQVRECAAQLTRLAKQTGIAIVMIGHVTKDGALAGPRVLEHIVDTVLYFEGDTHSSFRLVRAFKNRFGAVNELGVFAMTDRGLRGVANPSALFLSQHQQQVAGSCVLATQEGTRPLLVEVQALVDTSHAPNPRRLTVGLEGNRLAMLLAVMHRHAGVSTYDQDVFVNAVGGVRITEPAADLPVLLAIMSSLRDKPLPAGLVAFGEIGLAGEIRPAPRGQERLREAAKLGFSVALIPKANAPRQPIEGLEIWAVDRLDAALDKLRLEHHHHHH,not soluble
14,MKEFIISEARTEPTVLVGLITPQQSETQVREYLDELAFLCETAGAQPIARFTQKLDQPNSVTFVGKGKLDEIRAYVQENEIGMVVFDDELSPKQLRNIEKELQTKILDRTGLILDIFARRAQTAHAKTQVELAQYQYMLPRLTGLWTHLERQRGGVGMRGPGEKQLETDRRIVLDKIARLKEELRDIDKQKSVQRKNRGKMVRVALVGYTNVGKSTLMNVLSKSEVFAENKLFATLDTTVRKVIIDNLPFLLSDTVGFIRKLPTQLVESFKSTLDEVREADLLVHVVDMSHPAFEEQIEVVNQTLAEITAGEEKPMLLLFNKIDAFSFTPKDEDDLTPRTKENISAEELQQTWMAKLGNDCLFVSAKKGTGMDALKALLYERAKAIHITRFPYNDFLFQDYSEEME,not soluble
15,MAKYQTIEAAVRSEFGKGSARRARVAGQIPAVVYGADVESNLHVTIDHRTFAALVRQEGVNAVLELDIEGQKQLTMIKHIDQNVLTFHIDHLDLLAI,not soluble
16,MSENKNVQDTHISEQMKALHGALIRVVSALNRPRNDEKLIAEAGIQLDRALFSILISIERLGPIGVVELAERAGRDYTTVSRQVAKLEKLGLIIRQHNAIDRRIREAVISRTGKAMTERIDAAREQMGNVVFKDWPQDELDVFVRLMQKFADAMDSDASMPE,not soluble
17,MLRKDIGIDLGTANTLVFLRGKGIVVNEPSVIAIDSTTGEILKVGLEAKNMIGKTPATIKAIRPMRDGVIADYTVALVMLRYFINKAKGGMNLFKPRVVIGVPIGITDVERRAILDAGLEAGASKVFLIEEPMAAAIGSNLNVEEPSGNMVVDIGGGTTEVAVISLGSIVTWESIRIAGDEMDEAIVQYVRETYRVAIGERTAERVKIEIGNVFPSKENDELETTVSGIDLSTGLPRKLTLKGGEVREALRSVVVAIVESVRTTLEKTPPELVSDIIERGIFLTGGGSLLRGLDTLLQKETGISVIRSEEPLTAVAKGAGMVLDKVNILKKLQGAGGSHHHHHH,soluble
